Source: patent US20240132559, “COMPOSITIONS AND METHODS FOR MODULATING MYC EXPRESSION” (FLAGSHIP PIONEERING INNOVATIONS V, INC., published 2024)

Molecular target: ZF9-MQ1 (synthetic)
Test: cell_activity; MYC mRNA down-regulation in A549 and HCC95, 72 h
Details: tags: NLS, MQ1 DNA methyltransferase, HA

Sequence of ZF9-MQ1 (synthetic) (chain, as listed by the source): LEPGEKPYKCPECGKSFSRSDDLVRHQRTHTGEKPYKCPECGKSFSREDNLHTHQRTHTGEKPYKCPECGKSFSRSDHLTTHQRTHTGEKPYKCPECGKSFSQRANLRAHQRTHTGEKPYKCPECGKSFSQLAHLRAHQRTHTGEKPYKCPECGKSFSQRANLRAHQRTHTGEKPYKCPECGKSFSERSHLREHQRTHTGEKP

B1: ZF9 target site in MYC promoter (dsDNA)
DNA 1: AGCAAAAGAAAATGGTAGGCG
DNA 2: CGCCTACCATTTTCTTTTGCT
Work on B1 yielded an EC50 of 0.08 ug/ml LNP/mRNA.
